# T1: E(Edans)-AAHAAK-(Dabcyl)-NH2 (not fully specified)
# T1 chain: AAHAAK
# B1: aspergillopepsin II (An01g00530) (protein)
# chain: EDYSSNWAGAVLIGDGYTKVTGEFTVPSVSAGSSSSSGYGGGYGYYKNKRQSEEYCASAWVGIDGDTCETAILQTGVDFCYEDGQTSYDAWYEWYPDYAYDFNDITISEGDTIKVTVEATSKSSGSATVENLTTGQSVTHTFSGNVEGDLCETNAEWIVEDFESGDSLVAFADFGSVTFTNAEATSDGSTVGPSDATVMDIEQDGTVLTETSVSGDSVTVTYV
# Target: T1, E(Edans)-AAHAAK-(Dabcyl)-NH2
protein,measurement,value
B1,enzyme activity in relative fluorescent units (rfu) per minute per mg of protein; cleavage of FRET peptide at pH 4,yields by the highest rfu value for aspergillopepsin II
same,mass spectrometry of the substrate's cleavage fragments (E(Edans)-AAH and AAK-(Dabcyl)NH2),aspergillopepsin II cleaves histidine at the C-terminal in the E(Edans)-AAHAAK-(Dabcyl)NH2 substrate

# — patent US20150201663
